The target of assay [1] is HLA-B*57:01. In words: IEDB peptide-MHC binding, purified MHC/direct/fluorescence; filed as Kd, often an IC50 or EC50 that approximates it; ≥ and ≤ were set here for values at or beyond the usual limits of such assays. The conditions noted are these: source organism: Francisella tularensis subsp. tularensis FSC033.
A further assay deals with HLA-A*02:01. The assay is described as above.
A further assay deals with HLA-B*58:01. Described as above.
Assay [2] addresses HLA-B*18:01. Described as above. The conditions noted are these: source organism: Francisella tularensis subsp. tularensis FSC033.
The next assay concerns the target HLA-B*44:02. The assay is described as above.
A further assay concerns the target HLA-A*30:01. The assay is described as above. The settings on record: source organism: Francisella tularensis subsp. tularensis FSC033.
For assay [3], the target named is HLA-A*02:50. The description is as above. The settings on record: source organism: Francisella tularensis subsp. tularensis FSC033.
The target of assay [4] is HLA-A*69:01. Described as above.
Assay [5] addresses HLA-B*15:01. The assay is described as above.
Another assay concerns the target HLA-A*01:01. Described as above.
A further assay has as its target HLA-A*29:02. The assay is described as above.
For the next assay, the target named is HLA-B*07:02. Described as above.
In assay [6] the target is HLA-B*51:01. The assay is described as above. The conditions noted are these: source organism: Francisella tularensis subsp. tularensis FSC033.
The target of another assay is HLA-B*40:01. The assay is described as above.
For another assay, the target named is HLA-A*02:11. The assay is described as above.
The target in a further assay is HLA-A*02:06. The description is as above. The settings on record: source organism: Coxiella burnetii Q321.
The target of a further assay is HLA-A*02:03. The assay is described as above. The settings on record: source organism: Coxiella burnetii Q321.
For a further assay, the target named is HLA-A*03:01. Described as above.
The next assay concerns the target HLA-A*11:01. The description is as above. The settings on record: source organism: Coxiella burnetii.
Another assay concerns the target HLA-A*02:12. Described as above. The conditions noted are these: source organism: Coxiella burnetii Q321.
Another assay addresses HLA-B*27:05. The assay is described as above. The settings on record: source organism: Coxiella burnetii.
In another assay the target is HLA-A*02:19. Described as above. The settings on record: source organism: Coxiella burnetii Q321.
For a further assay, the target named is HLA-A*24:02. Described as above. The conditions noted are these: source organism: Coxiella burnetii.
The target of another assay is HLA-C*08:02. Described as above. The settings on record: source organism: Coxiella burnetii RSA 493.
Another assay has as its target HLA-C*12:03. The description is as above. The settings on record: source organism: Coxiella burnetii RSA 493.
The target in assay [7] is HLA-A*02:50. In words: IEDB peptide-MHC binding, purified MHC/competitive/fluorescence; filed as Kd, often an IC50 or EC50 that approximates it; ≥ and ≤ were set here for values at or beyond the usual limits of such assays. The conditions noted are these: source organism: Coxiella burnetii RSA 493.
Another assay concerns the target HLA-A*68:02. In words: IEDB peptide-MHC binding, purified MHC/direct/fluorescence; filed as Kd, often an IC50 or EC50 that approximates it; ≥ and ≤ were set here for values at or beyond the usual limits of such assays. The settings on record: source organism: Zaire ebolavirus.
In assay [8] the target is HLA-B*57:01. Kind of assay: IEDB peptide-MHC binding, purified MHC/competitive/fluorescence; filed as Kd, often an IC50 or EC50 that approximates it; ≥ and ≤ were set here for values at or beyond the usual limits of such assays. The conditions noted are these: source organism: Zaire ebolavirus.
A further assay deals with HLA-B*46:01. The description is as above. The conditions noted are these: source organism: Zaire ebolavirus.
Another assay deals with HLA-A*80:01. The assay is described as above. The settings on record: source organism: Zaire ebolavirus.
The target in assay [9] is HLA-B*18:01. The description is as above. The conditions noted are these: source organism: Zaire ebolavirus.
For the next assay, the target named is HLA-B*39:01. Described as above. The settings on record: source organism: Zaire ebolavirus.
In assay [10] the target is HLA-A*69:01. The description is as above. The settings on record: source organism: Zaire ebolavirus.
The next assay has as its target HLA-A*26:01. Described as above. The conditions noted are these: source organism: Zaire ebolavirus.
Another assay has as its target HLA-A*25:01. The description is as above. The settings on record: source organism: Zaire ebolavirus.
Assay [11] concerns the target HLA-B*15:01. The assay is described as above. The conditions noted are these: source organism: Zaire ebolavirus.
The target in the next assay is HLA-B*27:03. The description is as above. The settings on record: source organism: Zaire ebolavirus.
In assay [12] the target is HLA-B*51:01. Described as above. The conditions noted are these: source organism: Zaire ebolavirus.
The mark [13] stands for this setting: source organism: Francisella tularensis subsp. holarctica OSU18.
[14] abbreviates: source organism: Francisella tularensis subsp. tularensis FSC033.
[15] abbreviates: source organism: Coxiella burnetii.
The mark [16] stands for this setting: source organism: Zaire ebolavirus.

pKd: −log10 of the molar value. Some results are limits rather than exact numbers.

For ETLDVFGPI, the negative-log Kd (pKd) with HLA-B*57:01 [1], with HLA-A*02:01 (setting [13]), with HLA-B*58:01 (setting [14]), with HLA-B*18:01 [2], with HLA-B*44:02 (setting [14]) and in the assay with HLA-A*30:01 was at most 4.70 each time. Further, the pKd with HLA-A*02:50 [3] is at most 4.70; with HLA-A*69:01 [4] (setting [13]) it was 9.40; with HLA-B*15:01 [5] (setting [14]), at most 4.70; in the assay with HLA-A*01:01 (setting [14]), at most 4.70; with HLA-A*29:02 (setting [14]) it was at most 4.70; with HLA-B*07:02 (setting [14]), at most 4.70. The pKd in the assay with HLA-B*51:01 [6] and in the assay with HLA-B*40:01 (setting [14]) was at most 4.70 each time.

Consider YMHGSIHEV, for which the negative-log Kd (pKd) with HLA-A*02:01 (setting [15]) was 7.24; with HLA-A*02:11 (source organism: Coxiella burnetii Q321), 8.70; with HLA-B*58:01 (setting [15]), at most 4.70; in the assay with HLA-A*02:06 it was 8.70; with HLA-A*02:03 it was 8.70; with HLA-A*03:01 (setting [15]), at most 4.70. In addition, the pKd in the assay with HLA-B*44:02 (setting [15]) was at most 4.70; with HLA-A*69:01 [4] (setting [15]) it was 7.39; in the assay with HLA-A*11:01 it was at most 4.70; in the assay with HLA-A*02:12, 8.15; in the assay with HLA-B*27:05, at most 4.70; with HLA-A*02:19, 8.15. Further, the pKd with HLA-B*15:01 [5] (setting [15]) is 6.93; with HLA-A*24:02, at most 4.70; in the assay with HLA-A*01:01 (setting [15]) it was at most 4.70; in the assay with HLA-B*07:02 (setting [15]) it was at most 4.70; with HLA-B*40:01 (setting [15]), at most 4.70; in the assay with HLA-C*08:02, at most 4.70. For the same sequence, the figures for the negative-log Kd (pKd) with HLA-C*12:03 and with HLA-A*02:50 [7] were 7.59 and at least 10.00, respectively.

Consider SLTDRELLL, for which the negative-log Kd (pKd) with HLA-A*02:01 (source organism: Sudan ebolavirus - Uganda (2000)) was 8.89; with HLA-A*02:11 (setting [16]), at most 4.70; with HLA-A*03:01 (setting [16]), at most 4.70; with HLA-A*29:02 (setting [16]) it was at most 4.70; in the assay with HLA-A*68:02, at most 4.70; in the assay with HLA-B*57:01 [8], at most 4.70. Further, the negative-log Kd (pKd) with HLA-B*46:01, with HLA-A*80:01, with HLA-B*18:01 [9], in the assay with HLA-B*39:01, with HLA-A*69:01 [10] and with HLA-A*26:01 was at most 4.70 throughout. In addition, the negative logarithm of the Kd (pKd) in the assay with HLA-A*25:01, with HLA-B*15:01 [11], with HLA-B*27:03 and with HLA-B*51:01 [12] was at most 4.70 throughout.

Broadly, the pKd is the Kd on a negative log10 scale, so that one unit is a factor of ten.
